For orientation: Kd means the concentration at which binding is half-saturated. Higher therefore signals a looser complex.

This note sets out measurements from US20160145328A1 (published 2016).

Where a chain is given by its changes, count along the chain named. Read-outs that look alike come from different tables or passages of the source.

Assay [1] addresses T1, protein A (UniProt P38507 37-477).
T1 construct: also called Protein A superantigen
The assay can be described thus: Heat/Cool phage ELISA: phage-displayed VH, 80 C 10 min then 4 C 10 min, captured on coated protein A; signal as % of untreated sample. The protocol:
The aggregation-resistance of clones was analyzed by measuring retention of signal after heat incubation in a phage ELISA format (McCafferty et al., 1990; Jespers et al., 2004). Wells of a Nunc Maxisorp Immuno-plate were coated overnight with protein A at a concentration of about 5 μg/ml in phosphate-buffered saline (PBS). The plate was washed once with PBS and blocked with about 4% (w/v) milk powder diluted in PBS (MPBS). Single colonies were picked from agar plates and grown overnight in 2×TY medium (containing about 16 g/L tryptone; about 10 g/L yeast extract; about 5 g/L NaCl, pH 7.0) supplemented with about 15 μg/ml tetracycline shaking at about 30° C. Cells were removed by centrifugation and phages were biotinylated directly in the culture supernatant by adding biotin-PEO₄-N-hydroxysuccinimide (Pierce; about 50 μM final concentration). For heat selection, supernatant was first incubated at about 80° C. for about 10 min and then at about 4° C. for about 10 min. Supernatant was added to the blocked ELISA wells. After three washes with PBS, bound phage particles were detected using an Extravidin-HRP conjugate (Sigma) and 3,3′,5,5′-tetramethylbenzidine (TMB) substrate. Absorbance was calculated by subtracting measurements at 450 and 650 nm. […]
A general note: In an ELISA, binding on a coated surface is turned into a signal by an enzyme label.

Another assay deals with T2, Hen-Egg-Lysozyme (hen, UniProt P00698 19-147).
T2 construct: Biotinylated for Biacore; also called HEL
The experiment in a line: SPR (Biacore 2000), biotinylated antigen on streptavidin chip, purified VH. As for the experimental part:
(§1) The affinities of VH clones were measured using surface plasmon resonance (using a Biacore2000 instrument; GE Healthcare). For this purpose, biotinylated antigen diluted in PBS was injected over a streptavidin (SA) sensor chip (Biacore AB). Serial dilutions of purified VH were injected over the flow cell containing the corresponding target antigen. Equilibrium dissociation constants were calculated using the BIAevaluation 4.1 software package (Biacore AB).
(§2) The antigen-specific VH domains were expressed and purified. Affinity measurements were performed by surface plasmon resonance on a Biacore 2000 instrument.
(SPR reads the build-up and loss of mass on a sensor chip optically.)

The target in assay [2] is T1, protein A. The assay can be described thus: Heat/Cool phage ELISA on protein A; signal after 80 C 10 min / 4 C 10 min as % of untreated sample. The protocol: The aggregation-resistance of clones was analyzed by measuring retention of signal after heat incubation in a phage ELISA format (McCafferty et al., 1990; Jespers et al., 2004). Wells of a Nunc Maxisorp Immuno-plate were coated overnight with protein A at a concentration of about 5 μg/ml in phosphate-buffered saline (PBS). The plate was washed once with PBS and blocked with about 4% (w/v) milk powder diluted in PBS (MPBS). Single colonies were picked from agar plates and grown overnight in 2×TY medium (containing about 16 g/L tryptone; about 10 g/L yeast extract; about 5 g/L NaCl, pH 7.0) supplemented with about 15 μg/ml tetracycline shaking at about 30° C. Cells were removed by centrifugation and phages were biotinylated directly in the culture supernatant by adding biotin-PEO₄-N-hydroxysuccinimide (Pierce; about 50 μM final concentration). For heat selection, supernatant was first incubated at about 80° C. for about 10 min and then at about 4° C. for about 10 min. Supernatant was added to the blocked ELISA wells. After three washes with PBS, bound phage particles were detected using an Extravidin-HRP conjugate (Sigma) and 3,3′,5,5′-tetramethylbenzidine (TMB) substrate. Absorbance was calculated by subtracting measurements at 450 and 650 nm.
Antigen-specific VH domains were selected from the Garvan-2 library by phage display against recombinant protein antigen. After selection, the domains were evaluated for aggregation-resistance using the “Heat/Cool” assay described in Example 1.2, and binding to either or protein A superantigen and or recombinant antigen.

Assay [3] deals with T1, protein A. The assay can be described thus: Heat/Cool phage ELISA: phage-displayed scFv, 80 C 10 min then 4 C 10 min, captured on coated protein A; signal as % of untreated sample. The protocol:
(§3) The aggregation-resistance of clones was analyzed by measuring retention of signal after heat incubation in a phage ELISA format (McCafferty et al., 1990; Jespers et al., 2004). Wells of a Nunc Maxisorp Immuno-plate were coated overnight with protein A at a concentration of about 5 μg/ml in phosphate-buffered saline (PBS). The plate was washed once with PBS and blocked with about 4% (w/v) milk powder diluted in PBS (MPBS). Single colonies were picked from agar plates and grown overnight in 2×TY medium (containing about 16 g/L tryptone; about 10 g/L yeast extract; about 5 g/L NaCl, pH 7.0) supplemented with about 15 μg/ml tetracycline shaking at about 30° C. […] After three washes with PBS, bound phage particles were detected using an Extravidin-HRP conjugate (Sigma) and 3,3′,5,5′-tetramethylbenzidine (TMB) substrate. Absorbance was calculated by subtracting measurements at 450 and 650 nm.
The DP47-CDR1 mutants described above were paired with a common single variable light chain (VL; SEQ ID NO: 3) via a linker (SEQ ID NO: 4) in a scFv format (see the Materials and Methods section for full experimental details). […] Correctly folded scFv were captured by protein A ELISA and the absorbance signal of the treated sample was calculated as a percentage of the untreated sample.

The target in assay [4] is T1, protein A. The assay can be described thus: Heat/Cool phage ELISA: phage-displayed VH, 80 C 10 min then 4 C 10 min, captured on coated protein A; signal as % of untreated sample. As for the experimental part:
as §3
To identify additional residues in CDR1 that confer aggregation-resistance on VH, surface-exposed residues of DP47 between positions 26 to 35 (numbering according to the Kabat numbering system) were substituted for aspartic acid (D) or glutamic acid (E). […] Correctly folded VH were captured by protein A ELISA and the absorbance signal of the treated sample was calculated as a percentage of the untreated sample.
This is another data set of the same source.

For assay [5], the target named is T1, protein A. The assay is described as above. The protocol: The aggregation-resistance of clones was analyzed by measuring retention of signal after heat incubation in a phage ELISA format (McCafferty et al., 1990; Jespers et al., 2004). Wells of a Nunc Maxisorp Immuno-plate were coated overnight with protein A at a concentration of about 5 μg/ml in phosphate-buffered saline (PBS). The plate was washed once with PBS and blocked with about 4% (w/v) milk powder diluted in PBS (MPBS). Single colonies were picked from agar plates and grown overnight in 2×TY medium (containing about 16 g/L tryptone; about 10 g/L yeast extract; about 5 g/L NaCl, pH 7.0) supplemented with about 15 μg/ml tetracycline shaking at about 30° C. Cells were removed by centrifugation and phages were biotinylated directly in the culture supernatant by adding biotin-PEO₄-N-hydroxysuccinimide (Pierce; about 50 μM final concentration). […] After three washes with PBS, bound phage particles were detected using an Extravidin-HRP conjugate (Sigma) and 3,3′,5,5′-tetramethylbenzidine (TMB) substrate. Absorbance was calculated by subtracting measurements at 450 and 650 nm.
VH domains were produced comprising negatively charged amino acids at positions 28 and/or 35 in CDR1 of DP47 and at least one other position, as set out in Table 7. Aggregation-resistance of the VH domains was assessed using the “Heat/Cool” assay as described in Example 1.2.
The source holds these as a separate data set.

Assay [6] addresses T3, human tumor necrosis factor α (human, UniProt P01375 77-233).
T3 construct: also called hTNF; human TNF
The experiment in a line: SPR (Biacore), biotinylated hTNF on streptavidin chip, purified VH injected from 4 µM down. As for the experimental part: The affinities of VH clones G07 (anti-hTNF; SEQ ID NO: 5) and G11 (anti-mIL-21; SEQ ID NO: 6) were measured using surface plasmon resonance (using a Biacore machine; GE Healthcare). For this purpose, biotinylated antigen diluted in PBS was injected over a streptavidin (SA) sensor chip (Biacore AB). Serial dilutions of purified VH (with concentrations ranging from about 0.125 to 4 μM) were injected at a flowrate of about 20 μl/min over the flow cell containing the corresponding target antigen. Equilibrium dissociation constants were calculated using the BIAevaluation 4.1 software package (Biacore AB).
Two clones selected for their binding to human tumour necrosis factor (hTNF) or mouse interleukin 21 (mIL-21) were isolated from the Garvan-I libraries, as detailed above (see Materials and Methods section). […] Biacore affinity measurements of anti-human TNF clone G07 (SEQ ID NO: 5) and anti-mouse IL-21 clone G11 (SEQ ID NO: 6) were performed. Serial dilutions of each purified protein, starting at 4 μM, were run on a streptavidin (SA) chip coated with biotinylated hTNF and mIL-21, respectively.

The target of another assay is T4, human prolactin receptor (human, UniProt P16471 25-234).
T4 construct: also called hPRLR; PRLR (Prolactin Receptor)
T4 sequence (looked up): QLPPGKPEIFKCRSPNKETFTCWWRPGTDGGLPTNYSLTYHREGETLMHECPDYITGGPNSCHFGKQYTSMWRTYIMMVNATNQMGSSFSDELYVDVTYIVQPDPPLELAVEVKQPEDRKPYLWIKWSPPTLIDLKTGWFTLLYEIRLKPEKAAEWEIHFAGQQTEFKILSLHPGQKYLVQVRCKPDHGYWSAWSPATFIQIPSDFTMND
The experiment in a line: SPR (Biacore 2000), biotinylated antigen on streptavidin chip, purified VH. The protocol: as §1, §2

T2 sequence (P00698 19-147): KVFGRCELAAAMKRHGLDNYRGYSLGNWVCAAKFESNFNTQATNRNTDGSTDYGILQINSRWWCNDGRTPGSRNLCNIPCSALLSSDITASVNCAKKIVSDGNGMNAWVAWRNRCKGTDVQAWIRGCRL
T3 sequence (P01375 77-233 limits assumed): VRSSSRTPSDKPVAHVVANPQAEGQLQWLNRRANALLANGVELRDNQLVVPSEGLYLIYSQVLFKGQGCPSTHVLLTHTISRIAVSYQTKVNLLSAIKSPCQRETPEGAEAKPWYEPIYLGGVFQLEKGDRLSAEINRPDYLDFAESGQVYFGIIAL

B1: DP47 VH G52aD (other, name in Kabat numbering)
VH: QVQLLESGGGLVQPGGSLRLSCAASGFTFSSYAMSWVRQAPGKGLEWVSAISDSGGSTYYADSVKGRFTISRDNSKNTLYLQMNSLRAEDTAVYYCAKSYGAFDYWGQGTLVTVSS
Consider B1, for which the “Retained binding to protein A (%)” value in the assay with protein A [1] is 2.1%.

B2: VHHEL_G08 (anti-HEL VH) (other)
VH: EVQLLESGGGLVQPGGSLRLSCAASGFRISDEDMGWVRQAPGKGLEWVSYIDNNGYSTYYADSVKGRFTISRDNSKNTLYLQMNSLRAEDTAVYYCAKKQYGYQNGGFDYWGQGTLVTVSS
With B2, the Kd with Hen-Egg-Lysozyme stood at 65 nM. Also, the “Retained binding (%) after heating” value with protein A [2] is 83.8%.

B3: scFv HEL4 VH - linker - common VL (scFv)
scFv: QVQLLESGGGLVQPGGSLRLSCAASGFRISDEDMGWVRQAPGKGLEWVSSIYGPSGSTYYADSVKGRFTISRDNSKNTLYLQMNSLRAEDTAVYYCASALEPLSEPLGFWGQGTLVTVSSGGGGSGGGGSGGGGSTDIQMTQSPSSLSASVGDRVTITCRASQSISSYLNWYQQKPGKAPKLLIYAYSDLQSGVPSGFSGSGSGTDFTLTISSLQPEDFATYYCQQLMTHPTTFGQGTKVEIKR
notes: also called HEL4 (scFv)
For the molecule B3, the “Retained binding to protein A” value in the assay with protein A [3] is 56%.

B4: scFv DP47 VH SYA31-33DED - linker - common VL (scFv)
scFv: QVQLLESGGGLVQPGGSLRLSCAASGFTFSDEDMSWVRQAPGKGLEWVSAISGSGGSTYYADSVKGRFTISRDNSKNTLYLQMNSLRAEDTAVYYCAKSYGAFDYWGQGTLVTVSSGGGGSGGGGSGGGGSTDIQMTQSPSSLSASVGDRVTITCRASQSISSYLNWYQQKPGKAPKLLIYAYSDLQSGVPSGFSGSGSGTDFTLTISSLQPEDFATYYCQQLMTHPTTFGQGTKVEIKR
notes: also called SYA31-33DED (scFv)
As for B4, the “Retained binding to protein A” value in the assay with protein A [3] is 45%.

B5: VHHEL_H04 (anti-HEL VH) (other)
VH: EVQLLESGGGLVQPGGSLRLSCAASGFRFDAEDMGWVRQAPGKGLEWVSSIYGPSGSTYYADSVKGRFTISRDNSKNTLYLQMNSLRAEDTAVYYCAKYTSPPQNHGFDYWGQGTLVTVSS
notes: Human VH single domain antibody from the Garvan-2 library
In turn, B5 displayed a Kd in the assay with Hen-Egg-Lysozyme of 28 nM. Further, the “Retained binding (%) after heating” value in the assay with protein A [2] is 87.8%.

B6: HEL4 VH (other)
VH: QVQLLESGGGLVQPGGSLRLSCAASGFRISDEDMGWVRQAPGKGLEWVSSIYGPSGSTYYADSVKGRFTISRDNSKNTLYLQMNSLRAEDTAVYYCASALEPLSEPLGFWGQGTLVTVSS
Turning to B6, the “Retained binding (%) after heating” value with protein A [2] turned out to be 88.1%. The “Retained binding to protein A (%)” value with protein A [4] is 80.2%; in the assay with protein A [1] it was 80.8%; with protein A [5], 87.7%.

B7: VHhTNF_G07 (anti-hTNF VH) (other, not shown: small tags and cut ends)
VH: B6 VH with A99K, L100E, E101D, P102Y, L103D, S104T, E105Y, P106N, L107W
notes: also called clone G07; anti-human TNF clone G07
In turn, B7 registered a Kd in assay [6] of 1860 nM.

B8: VHPRLR_C02 (anti-hPRLR VH) (other)
VH: EVQLLESGGGLVQPGGSLRLSCAASGFRFADEDMGWVRQAPGKGLEWVSDISGDGYSTYYADSVKGRFTISRDNSKNTLYLQMNSLRAEDTAVYYCAKLPPVYLGGAFDYWGQGTLVTVSS
notes: as for B5
Regarding B8, in the assay with human prolactin receptor, the Kd is less than 100 nM. The “Retained binding (%) after heating” value in the assay with protein A [2] is 98.8%.
